One assay concerns the target biotin-Vpr52-96 (HIV-1) (UniProt P69726). The assay can be described thus: SPR, Langmuir isotherm, ANT104-116 on biotinylated Vpr52-96.
Assay [1] concerns the target T1, adenine nucleotide translocator (ANT), purified native protein (rat, UniProt Q05962 2-298).
T1 construct: mature; Used detergent-solubilized (SPR), reconstituted in liposomes or planar bilayers, or inside mitochondria (pull-down); also called adenine nucleotide translocase; ADP/ATP carrier
T1 sequence: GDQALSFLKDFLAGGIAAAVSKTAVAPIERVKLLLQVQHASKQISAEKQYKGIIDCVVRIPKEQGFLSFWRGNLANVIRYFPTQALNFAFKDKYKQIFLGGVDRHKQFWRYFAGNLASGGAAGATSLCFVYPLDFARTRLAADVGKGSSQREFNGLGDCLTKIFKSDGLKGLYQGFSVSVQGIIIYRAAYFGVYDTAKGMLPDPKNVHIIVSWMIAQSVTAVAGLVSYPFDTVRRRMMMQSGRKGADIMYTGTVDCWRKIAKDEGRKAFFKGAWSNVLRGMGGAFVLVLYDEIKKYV
The assay can be described thus: not stated (summary of the inventors' findings).

Assay [2] concerns the target T1, adenine nucleotide translocator (ANT), …. The assay can be described thus: SPR, ANT over immobilized Vpr52-96. For orientation: Surface plasmon resonance follows binding to a sensor surface in real time, without labels.

A word on the Kd: it is the free concentration of one partner at which half of the binding sites on the other are occupied at equilibrium, for simple one-to-one binding.

Where no end group is shown, it is not given here.

With ANT-2-derived peptide ANT104-116, the Kd in the assay with biotin-Vpr52-96 (HIV-1) stood at 35000 nM.

B1: Vpr protein of HIV-1 (14 Kd; 96 aa) (other)
chain: MEQAPEDQGPQREPHNEWTLELLEELKNEAVRHFPRIWLHGLGQHIYETYGDTWAGVEAIIRILQQLLFIHFRIGCRHSRIGVTRQRRARNGASRS
notes: also called HIV-1 Viral protein R
Take B1: the dissociation constant Kd in assay [1] was determined as 1 nM.

B2: biotin-Vpr52-96 (peptide)
peptide: DTWAGVEAIIRILQQLLFIHFRIGCRHSRIGVTRQRRARNGASRS
modifications: also: biotin, position not given here
notes: range 52-96; Synthetic biotinylated peptide, immobilized for SPR and used as bait in the avidin-agarose pull-down; also called biotinylated Vpr52-96; immobilized Vpr C-terminal moiety
Turning to B2, in assay [2], binding was characterised by a dissociation constant (Kd) of 9.7 nM.

Values taken from patent US20020068273A1 (published 2002).
